Consider one substance from article PMC8464078.

Assay [1] deals with Xenopus Rif1–CTD S2058D (Xenopus). The assay is described as follows: pull-down.
Assay [2] addresses Xenopus Rif1–CTD S2058A (Xenopus). The assay is described as follows: pull-down.

“protein phosphatase 1 (PP1), gamma catalytic subunit (from UniProt P36874 1-323) (enzyme)”: the PP1 bound, percent of wild type Rif1–CTD in assay [1] is 9%; in assay [2], 54%.
